Test results: the DeepSol protein solubility set

Assay: soluble on expression in E. coli; label from the status in PepcDB or PDB records

Sequence | soluble on expression in E. coli
MSLTKPFDVTLTREIIKIESVYAKMIENENILYLRVTNFDKNVVDVASKELKKYPNVKGVILDLRNNPGGLLNQAIGLVNLFVDKGVIVSQKGRIASENQEYKADPKNKISNASLVVLVNGGSASASEIVSGALQDLKRGVIVGENTFGKGSVQQIIPINKTEALRLTIARYYLPSGRTIQAVGVKPDIEVFPGKVNTQEDGFSIKESDLKQHLESELEKIDKNKKEDKQENKDNKNLISQKQINDDAQLKSAIDTIKILNIKQGEGHHHHHH | soluble
MGSDKIHHHHHHMESHVNILKSDVKIDPSRSPFMKERVEVMYEGDDLESILEQVKEIELGEMTFKVIFVKINDLEGENKIEYAERRIIERRIGDCIDAEADVRNPERTFGIVPLGGRWYFGHYVESKPVWYHHIKKPRSYSTSLSTRVARSVANIAVPNPEGVRAIDPCCGIGTVVVEALSMGINIVGRDISPLVAIGARENIAHFGFDGTITKGPIEEITENYDVAIIDMPYDLFTHATPENQLSILSSARRIAKKVVVVTMETMDDMIHEAGFEIIDRCTTKKGTFSRQILVCE | not soluble
MAHCTEYMNAPKKLPADVAEELATTAQKLVQAGKGILAADESTQTIKKRFDNIKLENTIENRASYRDLLFGTKGLGKFISGAILFEETLFQKNEAGVPMVNLLHNENIIPGIKVDKGLVNIPCTDEEKSTQGLDGLAERCKEYYKAGARFAKWRTVLVIDTAKGKPTDLSIHETAWGLARYASICQQNRLVPIVEPEILADGPHSIEVCAVVTQKVLSCVFKALQENGVLLEGALLKPNMVTAGYECTAKTTTQDVGFLTVRTLRRTVPPALPGVVFLSGGQSEEEASVNLNSINALGPHPWALTFSYGRALQASVLNTWQGKKENVAKAREVLLQRAEANSLATYGKYKGGAGGENAGASLYEKKYVY | soluble
MSISDTVKRAREAFNSGKTRSLQFRIQQLEALQRMINENLKSISGALASDLGKNEWTSYYEEVAHVLEELDTTIKELPDWAEDEPVAKTRQTQQDDLYIHSEPLGVVLVIGAWNYPFNLTIQPMVGAVAAGNAVILKPSEVSGHMADLLATLIPQYMDQNLYLVVKGGVPETTELLKERFDHIMYTGSTAVGKIVMAAAAKHLTPVTLELGGKSPCYVDKDCDLDVACRRIAWGKFMNSGQTCVAPDYILCDPSIQNQIVEKLKKSLKDFYGEDAKQSRDYGRIINDRHFQRVKGLIDNQKVAHGGTWDQSSRYIAPTILVDVDPQSPVMQEEIFGPVMPIVCVRSLEEAIQFINQREKPLALYVFSNNEKVIKKMIAETSSGGVTANDVIVHITVPTLPFGGVGNSGMGAYHGKKSFETFSHRRSCLVKSLLNEEAHKARYPPSPAKMPRH | soluble
GMGYTLAEFLAHAIALETEAAERYVELADMMEAHNNLDTATVFRDMARFSTLHGDEIKQRSRALELPKLMSWQYRWKTPPEVGDENDIHYLMTPYHALRYARDNEIRGMEYYKEAAANSADPEVKRLGADFAAEEAEHVVALDKWIEKTPRPSITWSEDADPAQCVD | soluble
MAKVRETYVCSACGANTPQWRGQCPTCKAWNTLDAVTVARETRSGVRRQGAPDSVRPRPLRDVSDEGGSPFGTGLEALDRVLGSGLVPGAAILFGGEPGIGKSTLLLQVAGAVAASGRDVLYLSGEESLTQLKGRAERLGVLHERLLAVATSRVEDVFSVLESGTPPALLVLDSVQTLTSDLAEGLPGNVSQVRAVATEVVDRCKRAGTAVLLVGHVTKDGNLAGPRLLEHMVDTVVSLEGDRRQMFRLLRVLKNRFGPNQELLVFQMAQRGLEVVEDPSTFFLGARDPALSGTAVVMAVDGQRPFAVEVQALVTRSYLAIPRRTGLGFDVNRLHLLLAVLEKRLRLNFGQVDIYAKIGGGMRLQDPGMDLALVAAVLSSFYDVALPERAVLWGEVDLNGQVRPVAAHDIRLGQAARLGYGPVLHPGEGRGAVPTVVELQARLFGKSGAPRHNPSELEHHHHHH | not soluble
MQKEMEQDVKRFGQAAWATAIPRLEKLKLMLAQETLQLMRAKELCLNHKRAEIQGKMEDLPEQEKNINVVDELAIQFYEIQLELYEVKFEILKNKEILLTTQLDSLERLIKDEI | soluble
PKGSIIVSTRAPVGYVAIVDEDTTFNQGCKGLIPKSSEINTEFYCYYLLLIKRKLEQLSGGSTFKELPKKSLEELLIPLLPLPEQQKIAEILSTV | soluble
MGSDKIHHHHHHMRILALVPGGIGDQILFFPTVADLKKYYPQAQIDVVVEPRAVGAYRVCAEVDQVFPFDFKDRNSLADWGNLLGSIREREYEAVLSLGQRSLVGLFLWLTGIPKRVGYAGRGKIFLTDAVPLNREQYAGALYHDLLQGFGINTPCPNPKLTLARQDLDWATAEQQRLGLAGQGYLVLHGGSSTLAKLKGLQKVYPVEKWAIVLRSIREQRPSLPFVVVQGPDDAEFVAELRKSNLDFQVVQPPDIGKLAAIIAGADLMLCTDSAPMHLAVASGTRTIALFGPFEPAKLLPADDRFIGIKAQGVDVATIPPQEIIDRLFGR | not soluble
MSLRLIATEEAVTFQPVVDALRAHSRTDDASLDMILVRDVYGDEPARPAMIGRLSDVTGERLAEMDSNGVDMHLLSLTAPGVQMFDAETGTRLARIANDLMAQTVAANPTRFAGLGTFAPQDPASAAREIERVATQLRLNGLVINSHTNDLYYDDPFFHPVFEAIEASGLALYIHPRAPSKQIDRAFRDYGMNSAIWGYGIETSTNAVRMILSGLFDRFPRLKIVLGHMGEAIPFWLWRLDYMHGNATTFGGAPKLKLKPSEYFRRNFAITTSGVESHAALRYSIEVLGPENVMWAIDYPYQPMAPAVQFIRTAPIPEDVKAMVAGGNAARIFRITEGHHHHHH | soluble
MDFPPTKLDYHVDMFNLQSHSRFLSLFKAQDGRIALILESTVFHPQGGGQPSDTGLIVFSGSDLKFSVQDVLHYGVFEGSNPESGIDSEKGKEVYLTVDESRRKLNSRQAVEDCSHCYAWHGWNKISDVWLHSAGHLLDMCMQKVGLGHLEPGKGYHFPDGPFVEYKGSVPQEEFQVKQKELEAEANELISKGGKVYAAILPYEEASVLCGGSLPDYISKGSTPRIIKLGDSPGCPCGGTHVSNLSDIISMKITQMRTKKGMTKVFYTIAS | soluble
MGSDKIHHHHHHMRLNRETIKDRAAWEKIGVRPPYFDLDEVEKNTKEQPKWVHFGGGNIFRGFVAAVLQNLLEEGKEDTGINVIELFDYEVIDKVYKPYDNLSIAVTIKPDGDFEKRIIASVMEALKGDPSHPDWERAKEIFRNPSLQLASLTITEKGYNIEDQAGNLFPQVMEDMKNGPVSPQTSMGKVAALLYERFKAGRLPIALLSLDNFSRNGEKLYSSVKRISEEWVKSGLVEKDFIDYLEKDVAFPWSMIDKIVPGPSEFIKEHLEKLGIEGMEIFVTSKRTHIAPFVNMEWAQYLVIEDSFPNGRPKLEGADRNVFLTDRETVEKAERMKVTTCLNPLHTALAIFGCLLGYKKIADEMKDPLLKKLVEGVGEEGIKVVVDPGIINPREFLNEVINIRLPNPYLPDTPQRIATDTSQKMPIRFGETIKAYHERPDLDPRNLKYIPLVIAGWCRYLMGIDDEGREMQLSPDPLLENLRSYVSKIKFGDPESTDDHLKPILSSQQLFRVNLYEVGLGEKIEELFKKMITGPRAVRKTLEEVVGREDG | not soluble
MGSDKIHHHHHHVNVPTEFDINVLRADFDKTRLPRSRAQQMPGKMYTSSEVAALEKKRIFMDTWLCAGREEEIANPGDYMTREIASEPFVLSRDKEGKVHAFLNMCLHRGVPVAEGSGNARGFSCPYHAWYYDLQGTLLAAPLMEQSEANLKNCRLKPMRLALWRGWIFVSFNPDAMPFETFIAPFEENLWWFKSDECRLSERVVLQIDCNWKLLVENLIDIYHVPVLHKASFGGFLKSDKEKLSFNLLPRGGWYYEQKARPHSKSGQQLFPTLPWLEGMDSGTSMKAGIFPNLNLSLRFDSLRMWQVWPTSTGKSELHLYSLFMPAAFEDPDFQKHYEEYKSFLLGAIVNEDGPMVVKLQQAMGSEFYAPGPLSHLEGAVHHLMNYYLDVVSGEDRND | not soluble
MGSDKIHHHHHHMPIVTIGIDLAKNIFAVHGVDEAGKAMLIKPRVPRDQLATLIAQLPACLIGMEACSGAHHWARLFQQHGHTVKLMAPNLVAPYRMSGKRGKNDAADAAAICEAVARPSMRFVPLKDEHQQATLCLHRTRQGFVEERTATYNRLRGLLPEFGVVLPQSPEKLRRYVTEHLDALPGWAKRSIGDLLEHAGHIEDRLLEYDRAIAEIAREDARSKRLMQLRGVGPTTASALLASIGAGRDFRNGRQVAAWIGLTPGQYSSGGKARLGSITKAGDAYLRGLLVNGARAVIANLGEKQDRFSRWVRTLIERRGYWRAAVAIAAKNARLAWASLKYGEDFKLEPAAD | not soluble
